According to patent US20230048960A1 (University of Washington, published 2023):
Square brackets hold non-standard residues; d marks the D form. dNle = CCCC[C@@H](N)C(=O)O; Nle = CCCC[C@H](N)C(=O)O

B1: AP531m (peptide)
peptide: Ac-RGE[dC]N[dY]F[dW]MNEYYGW[dT]M[dN]M[dR][Nle]GK-NH2
SMILES: CCCC[C@H](NC(=O)[C@@H](CCCNC(=N)N)NC(=O)[C@H](CCSC)NC(=O)[C@@H](CC(N)=O)NC(=O)[C@H](CCSC)NC(=O)[C@H](NC(=O)[C@H](Cc1c[nH]c2ccccc12)NC(=O)CNC(=O)[C@H](Cc1ccc(O)cc1)NC(=O)[C@H](Cc1ccc(O)cc1)NC(=O)[C@H](CCC(=O)O)NC(=O)[C@H](CC(N)=O)NC(=O)[C@H](CCSC)NC(=O)[C@@H](Cc1c[nH]c2ccccc12)NC(=O)[C@H](Cc1ccccc1)NC(=O)[C@@H](Cc1ccc(O)cc1)NC(=O)[C@H](CC(N)=O)NC(=O)[C@@H](CS)NC(=O)[C@H](CCC(=O)O)NC(=O)CNC(=O)[C@H](CCCNC(=N)N)NC(C)=O)[C@H](C)O)C(=O)NCC(=O)N[C@@H](CCCCN)C(N)=O
B2: AP535m (peptide)
peptide: Ac-RGE[dY]N[dC]F[dW]MNEYYGW[dT]M[dN]M[dR]MGK-NH2
SMILES: CSCC[C@H](NC(=O)[C@@H](CCCNC(=N)N)NC(=O)[C@H](CCSC)NC(=O)[C@@H](CC(N)=O)NC(=O)[C@H](CCSC)NC(=O)[C@H](NC(=O)[C@H](Cc1c[nH]c2ccccc12)NC(=O)CNC(=O)[C@H](Cc1ccc(O)cc1)NC(=O)[C@H](Cc1ccc(O)cc1)NC(=O)[C@H](CCC(=O)O)NC(=O)[C@H](CC(N)=O)NC(=O)[C@H](CCSC)NC(=O)[C@@H](Cc1c[nH]c2ccccc12)NC(=O)[C@H](Cc1ccccc1)NC(=O)[C@@H](CS)NC(=O)[C@H](CC(N)=O)NC(=O)[C@@H](Cc1ccc(O)cc1)NC(=O)[C@H](CCC(=O)O)NC(=O)CNC(=O)[C@H](CCCNC(=N)N)NC(C)=O)[C@H](C)O)C(=O)NCC(=O)N[C@@H](CCCCN)C(N)=O
B3: AP532m (peptide)
peptide: Ac-RGE[dM]C[dY]F[dW]MNEYYGW[dT]M[dN]M[dR][Nle]GK-NH2
SMILES: CCCC[C@H](NC(=O)[C@@H](CCCNC(=N)N)NC(=O)[C@H](CCSC)NC(=O)[C@@H](CC(N)=O)NC(=O)[C@H](CCSC)NC(=O)[C@H](NC(=O)[C@H](Cc1c[nH]c2ccccc12)NC(=O)CNC(=O)[C@H](Cc1ccc(O)cc1)NC(=O)[C@H](Cc1ccc(O)cc1)NC(=O)[C@H](CCC(=O)O)NC(=O)[C@H](CC(N)=O)NC(=O)[C@H](CCSC)NC(=O)[C@@H](Cc1c[nH]c2ccccc12)NC(=O)[C@H](Cc1ccccc1)NC(=O)[C@@H](Cc1ccc(O)cc1)NC(=O)[C@H](CS)NC(=O)[C@@H](CCSC)NC(=O)[C@H](CCC(=O)O)NC(=O)CNC(=O)[C@H](CCCNC(=N)N)NC(C)=O)[C@H](C)O)C(=O)NCC(=O)N[C@@H](CCCCN)C(N)=O
B4: AP530m (peptide)
peptide: Ac-RGE[dC]N[dY]F[dW]MNEYYGW[dT]M[dN]M[dR]MGK-NH2
SMILES: CSCC[C@H](NC(=O)[C@@H](CCCNC(=N)N)NC(=O)[C@H](CCSC)NC(=O)[C@@H](CC(N)=O)NC(=O)[C@H](CCSC)NC(=O)[C@H](NC(=O)[C@H](Cc1c[nH]c2ccccc12)NC(=O)CNC(=O)[C@H](Cc1ccc(O)cc1)NC(=O)[C@H](Cc1ccc(O)cc1)NC(=O)[C@H](CCC(=O)O)NC(=O)[C@H](CC(N)=O)NC(=O)[C@H](CCSC)NC(=O)[C@@H](Cc1c[nH]c2ccccc12)NC(=O)[C@H](Cc1ccccc1)NC(=O)[C@@H](Cc1ccc(O)cc1)NC(=O)[C@H](CC(N)=O)NC(=O)[C@@H](CS)NC(=O)[C@H](CCC(=O)O)NC(=O)CNC(=O)[C@H](CCCNC(=N)N)NC(C)=O)[C@H](C)O)C(=O)NCC(=O)N[C@@H](CCCCN)C(N)=O
B5: AP533m (peptide)
peptide: Ac-RGE[dNle]N[dY]F[dW]MNEYYGW[dT]M[dN]M[dR]CGK-NH2
SMILES: CCCC[C@@H](NC(=O)[C@H](CCC(=O)O)NC(=O)CNC(=O)[C@H](CCCNC(=N)N)NC(C)=O)C(=O)N[C@@H](CC(N)=O)C(=O)N[C@H](Cc1ccc(O)cc1)C(=O)N[C@@H](Cc1ccccc1)C(=O)N[C@H](Cc1c[nH]c2ccccc12)C(=O)N[C@@H](CCSC)C(=O)N[C@@H](CC(N)=O)C(=O)N[C@@H](CCC(=O)O)C(=O)N[C@@H](Cc1ccc(O)cc1)C(=O)N[C@@H](Cc1ccc(O)cc1)C(=O)NCC(=O)N[C@@H](Cc1c[nH]c2ccccc12)C(=O)N[C@@H](C(=O)N[C@@H](CCSC)C(=O)N[C@H](CC(N)=O)C(=O)N[C@@H](CCSC)C(=O)N[C@H](CCCNC(=N)N)C(=O)N[C@@H](CS)C(=O)NCC(=O)N[C@@H](CCCCN)C(N)=O)[C@H](C)O
B6: AP501m (peptide)
peptide: Ac-RGN[dW]N[dE]S[dK]MNEYYGW[dM]L[dM]C[dT]MGR-NH2
SMILES: CSCC[C@H](NC(=O)[C@@H](CCCCN)NC(=O)[C@H](CO)NC(=O)[C@@H](CCC(=O)O)NC(=O)[C@H](CC(N)=O)NC(=O)[C@@H](Cc1c[nH]c2ccccc12)NC(=O)[C@H](CC(N)=O)NC(=O)CNC(=O)[C@H](CCCNC(=N)N)NC(C)=O)C(=O)N[C@@H](CC(N)=O)C(=O)N[C@@H](CCC(=O)O)C(=O)N[C@@H](Cc1ccc(O)cc1)C(=O)N[C@@H](Cc1ccc(O)cc1)C(=O)NCC(=O)N[C@@H](Cc1c[nH]c2ccccc12)C(=O)N[C@H](CCSC)C(=O)N[C@@H](CC(C)C)C(=O)N[C@H](CCSC)C(=O)N[C@@H](CS)C(=O)N[C@@H](C(=O)N[C@@H](CCSC)C(=O)NCC(=O)N[C@@H](CCCNC(=N)N)C(N)=O)[C@H](C)O
B7: AP534m (peptide)
peptide: Ac-RGE[dNle]N[dY]F[dW]MNEYYGW[dT]M[dN]M[dC]RGK-NH2
SMILES: CCCC[C@@H](NC(=O)[C@H](CCC(=O)O)NC(=O)CNC(=O)[C@H](CCCNC(=N)N)NC(C)=O)C(=O)N[C@@H](CC(N)=O)C(=O)N[C@H](Cc1ccc(O)cc1)C(=O)N[C@@H](Cc1ccccc1)C(=O)N[C@H](Cc1c[nH]c2ccccc12)C(=O)N[C@@H](CCSC)C(=O)N[C@@H](CC(N)=O)C(=O)N[C@@H](CCC(=O)O)C(=O)N[C@@H](Cc1ccc(O)cc1)C(=O)N[C@@H](Cc1ccc(O)cc1)C(=O)NCC(=O)N[C@@H](Cc1c[nH]c2ccccc12)C(=O)N[C@@H](C(=O)N[C@@H](CCSC)C(=O)N[C@H](CC(N)=O)C(=O)N[C@@H](CCSC)C(=O)N[C@H](CS)C(=O)N[C@@H](CCCNC(=N)N)C(=O)NCC(=O)N[C@@H](CCCCN)C(N)=O)[C@H](C)O

Molecular target: Aβ42 (UniProt P05067 672-713)
Assay: cell-based or functional assay

Sequence of Aβ42 (P05067 672-713 limits assumed): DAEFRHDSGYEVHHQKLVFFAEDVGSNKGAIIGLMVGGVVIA

Going from Ac-RGE[dM]C[dY]F[dW]MNEYYGW[dT]M[dN]M[dR][Nle]GK-NH2 (also: disulfide-linked homodimer via Cys5) [AP532d] to B1, the “% inhibition of fibril formation (ThT), AP:Aβ42 1:1” value falls from 94.2% to 37.2%.

Going from Ac-RGE[dNle]N[dY]F[dW]MNEYYGW[dT]M[dN]M[dR]CGK-NH2 (also: disulfide-linked homodimer via Cys21) [AP533d] to Ac-[dR]G[dE]M[dN]L[dS]W[dM][dN][dE][dY][dS]G[dW]T[dM]N[dC]K[dM]G[dR]-NH2 (also: homodimer: D-Cys19 disulfide-bonded to D-Cys19 of other copy) [AP526d], the “% inhibition of fibril formation (ThT), AP:Aβ42 1:1” value rises from 85.2% to 100%.

Compared with B2, B3 is lower in “% inhibition of fibril formation (ThT), AP:Aβ42 1:1” value: 62.3% for the first, 62.1% for the second.

Ac-RGE[dY]N[dC]F[dW]MNEYYGW[dT]M[dN]M[dR]MGK-NH2 (also: homodimer: D-Cys6 disulfide-bonded to D-Cys6 of other copy) [AP535d] and Ac-RGN[dW]N[dE]S[dK]MNEYSGW[dM]L[dM]C[dT]MGR-NH2 (also: disulfide-linked homodimer via Cys19) [AP500d] are the same in “% inhibition of fibril formation (ThT), AP:Aβ42 1:1” value: 100% for the first, 100% for the second.

Compared with B4, B5 is lower in “% inhibition of fibril formation (ThT), AP:Aβ42 1:1” value: 78.2% for the first, 40.3% for the second.

Going from Ac-RGE[dC]N[dY]F[dW]MNEYYGW[dT]M[dN]M[dR][Nle]GK-NH2 (also: disulfide-linked homodimer via Cys4) [AP531d] to B6, the “% inhibition of fibril formation (ThT), AP:Aβ42 1:1” value falls from 92.6% to 29.2%.

First: B7
Second: Ac-RGE[dNle]N[dY]F[dW]MNEYYGW[dT]M[dN]M[dC]RGK-NH2 (also: disulfide-linked homodimer via Cys20) [AP534d]
The “% inhibition of fibril formation (ThT), AP:Aβ42 1:1” value of the first is lower: 40.2% for the first, 100% for the second.

First: Ac-RGE[dM]C[dY]F[dW]MNEYYGW[dT]M[dN]M[dR][Nle]GK-NH2 (also: disulfide-linked homodimer via Cys5) [AP532d]
Second: B1
The “% inhibition of fibril formation (ThT), AP:Aβ42 1:10” value of the first is higher: 75.4% for the first, 9.1% for the second.

First: Ac-RGE[dNle]N[dY]F[dW]MNEYYGW[dT]M[dN]M[dR]CGK-NH2 (also: disulfide-linked homodimer via Cys21) [AP533d]
Second: Ac-[dR]G[dE]M[dN]L[dS]W[dM][dN][dE][dY][dS]G[dW]T[dM]N[dC]K[dM]G[dR]-NH2 (also: homodimer: D-Cys19 disulfide-bonded to D-Cys19 of other copy) [AP526d]
The “% inhibition of fibril formation (ThT), AP:Aβ42 1:10” value of the first is lower: 68.2% for the first, 88.6% for the second.

Going from B2 to B3, the “% inhibition of fibril formation (ThT), AP:Aβ42 1:10” value falls from 31.3% to 0%.

First: Ac-RGE[dY]N[dC]F[dW]MNEYYGW[dT]M[dN]M[dR]MGK-NH2 (also: homodimer: D-Cys6 disulfide-bonded to D-Cys6 of other copy) [AP535d]
Second: Ac-RGN[dW]N[dE]S[dK]MNEYSGW[dM]L[dM]C[dT]MGR-NH2 (also: disulfide-linked homodimer via Cys19) [AP500d]
The “% inhibition of fibril formation (ThT), AP:Aβ42 1:10” value of the first is lower: 98.2% for the first, 100% for the second.

First: B4
Second: B5
The “% inhibition of fibril formation (ThT), AP:Aβ42 1:10” value of the first is higher: 31.6% for the first, 0% for the second.

First: Ac-RGE[dC]N[dY]F[dW]MNEYYGW[dT]M[dN]M[dR][Nle]GK-NH2 (also: disulfide-linked homodimer via Cys4) [AP531d]
Second: B6
The “% inhibition of fibril formation (ThT), AP:Aβ42 1:10” value of the first is higher: 78.6% for the first, 0% for the second.

Going from B7 to Ac-RGE[dNle]N[dY]F[dW]MNEYYGW[dT]M[dN]M[dC]RGK-NH2 (also: disulfide-linked homodimer via Cys20) [AP534d], the “% inhibition of fibril formation (ThT), AP:Aβ42 1:10” value rises from 11.2% to 92.2%.

Compared with Ac-RGE[dM]C[dY]F[dW]MNEYYGW[dT]M[dN]M[dR][Nle]GK-NH2 (also: disulfide-linked homodimer via Cys5) [AP532d], B1 is lower in “% inhibition of fibril formation (ThT), AP:Aβ42 1:100” value (from here on “% inhibition … AP:Aβ42 1:100”): 64.3% for the first, 0% for the second.

First: Ac-RGE[dNle]N[dY]F[dW]MNEYYGW[dT]M[dN]M[dR]CGK-NH2 (also: disulfide-linked homodimer via Cys21) [AP533d]
Second: Ac-[dR]G[dE]M[dN]L[dS]W[dM][dN][dE][dY][dS]G[dW]T[dM]N[dC]K[dM]G[dR]-NH2 (also: homodimer: D-Cys19 disulfide-bonded to D-Cys19 of other copy) [AP526d]
The “% inhibition … AP:Aβ42 1:100” value of the first is lower: 51.4% for the first, 62.4% for the second.

B2 and B3 are the same in “% inhibition … AP:Aβ42 1:100” value: 0% for the first, 0% for the second.

Going from Ac-RGE[dY]N[dC]F[dW]MNEYYGW[dT]M[dN]M[dR]MGK-NH2 (also: homodimer: D-Cys6 disulfide-bonded to D-Cys6 of other copy) [AP535d] to Ac-RGN[dW]N[dE]S[dK]MNEYSGW[dM]L[dM]C[dT]MGR-NH2 (also: disulfide-linked homodimer via Cys19) [AP500d], the “% inhibition … AP:Aβ42 1:100” value rises from 53.7% to 72.2%.

B4 and B5 are the same in “% inhibition … AP:Aβ42 1:100” value: 0% for the first, 0% for the second.

Going from Ac-RGE[dC]N[dY]F[dW]MNEYYGW[dT]M[dN]M[dR][Nle]GK-NH2 (also: disulfide-linked homodimer via Cys4) [AP531d] to B6, the “% inhibition … AP:Aβ42 1:100” value falls from 38.5% to 0%.

Going from B7 to Ac-RGE[dNle]N[dY]F[dW]MNEYYGW[dT]M[dN]M[dC]RGK-NH2 (also: disulfide-linked homodimer via Cys20) [AP534d], the “% inhibition … AP:Aβ42 1:100” value rises from 0% to 51.3%.
